According to patent publication US20220396632A1 (VERSEAU THERAPEUTICS, published 2022):
Substitutions are numbered along the chain they refer to.

Legend:
[1] = molecular target: T1, Biotin PSGL-1(42-62) peptide, unmodified (human, C-terminal Lys-biotin); assay: ELISA, plate-bound mAb captures biotin peptide
T1 construct: Residues 42-62 followed by GGGK-biotin; also called WT; wild-type
T1 peptide: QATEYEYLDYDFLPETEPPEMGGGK
In short: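 Direct format: anti-PSGL-1 mAb at a single concentration (2–500 nM) or serially diluted (0.002–100 nM) on immobilized target, detected with HRP anti-IgG and TMB at A450; 45 min steps at 37° C. Capture format: coated mAb (3 ug/mL) binds biotinylated unmodified or sulfotyrosine peptide (3 nM–3 uM), detected with HRP-streptavidin.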

P60A = molecular target: T2, P60A (C-terminal Lys-biotin); assay: alanine-scan ELISA, streptavidin-immobilized biotin peptide
T2 construct: alanine-scan peptide; also called Biotin PSGL-1(42-62) P60A peptide; 60P
T2 peptide: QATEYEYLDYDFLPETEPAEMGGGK

E58A [2] = molecular target: T3, E58A (C-terminal Lys-biotin); assay: as above
T3 construct: alanine-scan peptide; also called Biotin PSGL-1(42-62) E58A peptide; 58E
T3 peptide: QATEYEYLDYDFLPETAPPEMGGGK

[3] = molecular target: T4, Biotin PSGL-1(42-62) E56A peptide (C-terminal Lys-biotin); assay: ELISA, streptavidin-bound Ala peptide
T4 peptide: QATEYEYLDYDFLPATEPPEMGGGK

[4] = molecular target: T5, Biotin PSGL-1(105-125) peptide (human, N-terminal acetyl; C-terminal Lys-biotin); assay: ELISA, plate-bound peptide or protein
T5 peptide: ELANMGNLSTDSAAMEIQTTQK
Experimental: A typical ELISA experiment involved binding of a single concentration or serially diluted mAb in assay buffer (3% BSA in PBS containing 0.05% Tween®20, pH 7.4) onto BSA blocked high binding microtiter plate half-wells (Corning Cat. #3690), which contained PSGL-1 protein or streptavidin-immobilized biotin peptide. After incubation for 45 min. at 37° C., the plate was washed 3 times with wash buffer (PBS containing 0.05% Tween®20, pH 7.4), and an appropriate HRP-conjugated secondary antibody added (25 ul/well) (HRP goat anti-mouse or anti-human IgG). After 45 min. incubation at 37° C., the plate was washed and antibody bound to plate-immobilized target was determined at A450 nm using HRP substrate (3,3′5,5′-tetramethylbenzidine (TMB)). For each antibody, duplicate values were averaged and assay background subtracted.

[5] = molecular target: T6, Biotin PSGL-1(42-62) D50A peptide (C-terminal Lys-biotin); assay: ELISA, streptavidin-bound Ala peptide
T6 peptide: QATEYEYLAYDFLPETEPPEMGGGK

[6] = molecular target: T7, Biotin PSGL-1(42-62) E45A peptide (C-terminal Lys-biotin); assay: ELISA, streptavidin-bound Ala peptide
T7 peptide: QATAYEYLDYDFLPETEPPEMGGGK

[7] = molecular target: T8, Biotin PSGL-1(42-62) Y46A peptide (C-terminal Lys-biotin); assay: ELISA, streptavidin-bound Ala peptide
T8 peptide: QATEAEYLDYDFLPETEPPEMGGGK

E61A = molecular target: T9, E61A (C-terminal Lys-biotin); assay: alanine-scan ELISA, streptavidin-immobilized biotin peptide [cont.]
T9 construct: alanine-scan peptide; also called Biotin PSGL-1(42-62) E61A peptide; 61E
T9 peptide: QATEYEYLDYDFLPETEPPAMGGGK

[8] = molecular target: T10, Biotin PSGL-1(42-62) L49A peptide (C-terminal Lys-biotin); assay: as above
T10 peptide: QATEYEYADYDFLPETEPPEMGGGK

T57A = molecular target: T11, T57A (C-terminal Lys-biotin); assay: as above
T11 construct: alanine-scan peptide; also called Biotin PSGL-1(42-62) T57A peptide; 57T
T11 peptide: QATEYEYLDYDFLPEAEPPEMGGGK

[9] = molecular target: T4, Biotin PSGL-1(42-62) E56A peptide; assay: as above
E58A [10] = molecular target: T3, E58A; assay: as above
[11] = molecular target: T7, Biotin PSGL-1(42-62) E45A peptide; assay: as above
[12] = molecular target: T8, Biotin PSGL-1(42-62) Y46A peptide; assay: as above
E47A = molecular target: T12, E47A (C-terminal Lys-biotin); assay: as above
T12 construct: alanine-scan peptide; also called Biotin PSGL-1(42-62) E47A peptide; 47E
T12 peptide: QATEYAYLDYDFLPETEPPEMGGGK

Y48A = molecular target: T13, Y48A (C-terminal Lys-biotin); assay: as above
T13 construct: alanine-scan peptide; also called Biotin PSGL-1(42-62) Y48A peptide; 48Y
T13 peptide: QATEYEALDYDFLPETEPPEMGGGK

T44A = molecular target: T14, T44A (C-terminal Lys-biotin); assay: as above
T14 construct: alanine-scan peptide; also called Biotin PSGL-1(42-62) T44A peptide; 44T
T14 peptide: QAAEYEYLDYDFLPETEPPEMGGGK

B1: 03D07 (antibody, IgG4, V domains shown)
VH: EVKLLESGGGLVQPGGSLRLSCAASGFTFSSYALSWVRQAPGKGLEWVSAISGSGGNTYYADSVKGRFTISRDNSKNTLYLQMNSLRAEDTAVYYCAKVVGATNYWGQGTLVTVSS
VL: DIVMTQTPLSLPVTLGQPASISCRSSQSLVYSDGHTYLSWFHQRPGQSPRRLIYKVSIRDSGVPDRFSGSGSGTDFTLKISRVEAEDVGVYYCMQRLQIPLTFGGGTKVEIK
With B1 the EC50 [1] was > 3000 nM.

B2: 43B6 (antibody, V domains shown)
VH: EVQLQQSGPDLVKPGALVKISCKASGYSFTAYYIHWVKQSHGKSLEWIGRVNPNTGGTSYNPKFKGKAILNVDKSSSTAYMELRSLTSEDSAVYYCARSGSPYYRYDDWGQGTTLTVSS
VL: ENVLTQSPAIMSASPGEKVTMTCRASSTVNSTYLHWFQQKSGASPKLWIYGSSNLASGVPARFSGSGSGTSYSLTISSVEAEDAATYYCQQYSGYPLTFGAGTTLELK
notes: Control anti-PSGL-1 mAb, recombinant; only variable domains given; also called 43B3
B2 was tested, and the binding result (P60A) was “binds”, the binding result (E58A [2]) was “binds” and the EC50 [3] was 4.25 nM.

B3: 20I15 (antibody, V domains shown)
VH: EVKLVESGGGLVQPGGSLSLSCAASGFTFTDYYMSWVRQPPGKALEWLGFIRNKANGYTTEYSASVKGRFTISRDNSQSILYLQMNALRAEDSATYYCARTYLRRGYFDVWGTGTTVTVSS
VL: DIVLTQSPASLAVSLGQRATISCRASKSVSTSGYSYMHWFQQKPGQPPKLLIYLASNLESGVPARFSGSGSGTDFTLNIHPVEEEDAATYYCQHSRELPLTFGAGTKLELK
notes: From mouse immunisation; only variable domains given; also called 20115
With B3 the EC50 [1] was ~3000 nM.

B4: 16E17 (antibody, V domains shown)
VH: QIQLVQSGPELKKPGETVKISCKASGYAFTTYGMSWVKQAPGKGLKWMGWINTYSGVPKYADDFKGRFAFSLETSASTAYLHINNLKNEDTATYFCGRHYYGSSYFDYWGQGTTLTVSS
VL: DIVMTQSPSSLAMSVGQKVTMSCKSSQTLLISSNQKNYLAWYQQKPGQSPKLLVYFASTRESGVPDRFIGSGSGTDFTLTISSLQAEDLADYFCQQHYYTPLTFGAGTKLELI
notes: From mouse immunisation; only variable domains given
Work on B4 yielded an EC50 [4] of 26.7 nM.

B5: 18F02 (antibody, V domains shown)
VH: QVQLQQPGAELVKPGASVKLSCKASGYTFTSYWMHWVKQRPGQGLEWIGMIHPNSGRTNYNEKFKSKATLTVDKSSSTAYMQLSSLTSEDSAVYYCARSDYWGQGTTLTVSS
VL: DIVMTQAAFSNPVTLGTSASISCRSSKSLLHSDGITYLYWFLQRPGQSPQLLIYRMSNLASGVPDRFSGSGSGTDFTLRISRVEAEDVGVYYCAQMLEFPRTFGGGTKLEIK
notes: as for B4
In the case of B5, the binding result (P60A) is reported as “binds”, the binding result (E58A [2]) is reported as “binds” and the EC50 [5] is reported as 4.27 nM.

B6: 16L15 (antibody, V domains shown)
VH: DVKLVESGGGLVKLGGSLKLSCAASGFTFSSYYMSWVRQTPEKRLEWVATISNGGGSTYYPDSVKDRFTISRDNAKNTLYLQMSSLNSEDTAVYYCAKPLYYSNPWFAYWGQGTLVTVSA
VL: DVLLTQTPLSLPVSLGDQASISCRSSQSIVHSNGNTYLEWYLQKPGQSPKLLIYKVSNRFSGVPDRFSGSGSGTDFTLKISRVEAEDLGVYYCFQGSHVPRTFGGGTKLEIK
notes: as for B4
B6 showed an EC50 [6] of 5.34 nM and an EC50 [7] of 4.44 nM.

B7: 9F9 (antibody, V domains shown)
VH: EVQLVETGGGLVQPKGSLKLSCAASGFTFNTNAMNWVRQAPGKGLEWVARIRSKSNNYATYYADSVKDRFTISRDDTQSMIYLQMNNLKTEDTGMYYCVRGGSYWYFDVWGAGTTVTVSS
VL: B6 VL with L4M, H31N, R101W
notes: Control anti-PSGL-1 mAb, recombinant; only variable domains given; also called 9F6
B7: binds (E61A); binds [8]; binds (T57A). B7: binds [9]; binds (E58A [10]); binds [11]. B7: binds [12]; binds (E47A); binds (Y48A). B7: binds (T44A).
